This passage reports Jurkat-NFAT luciferase reporter, Fluorescence value (Max), Top mean fluorescence intensity (Top MFI) and MFI (Max) results from US20240010748A1.

The target of experiment [1] is human CD3 (hCD3) naturally expressed on Jurkat cells (human) (UniProt P07766). Nature of the experiment: cell-based or functional assay.
Experiment [2] shares this target. The experiment can be described thus: FACS on Jurkat cells.
In experiment [3] the target is murine Claudin 18.2 (mCLDN18.2) on stably-transfected HEK293 cells (murine) (UniProt P56857). Nature of the experiment: FACS on HEK293-mCLDN18.2 cells.
Experiment [4] concerns the target human Claudin 18.2 (hCLDN18.2) on stably-transfected HEK293 cells (human) (UniProt P56856). Nature of the experiment: FACS on HEK293-hCLDN18.2 cells.
Experiment [5] deals with Cynomolgus macaques Claudin 18 (cynoCLDN18) on stably-transfected HEK293 cells (Cynomolgus macaques). Nature of the experiment: FACS on HEK293-cynoCLDN18 cells.

Sequence of human CD3 (hCD3) naturally expressed on Jurkat cells (human) (P07766 23-207): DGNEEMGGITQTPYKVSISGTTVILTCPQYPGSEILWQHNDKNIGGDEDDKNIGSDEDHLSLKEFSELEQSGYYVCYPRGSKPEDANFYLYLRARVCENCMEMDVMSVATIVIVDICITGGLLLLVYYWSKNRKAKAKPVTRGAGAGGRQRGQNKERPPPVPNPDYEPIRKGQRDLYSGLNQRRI
Sequence of human Claudin 18.2 (hCLDN18.2) on stably-transfected HEK293 cells (human) (P56856 other isoform, or with tags, fused parts or gaps limits assumed): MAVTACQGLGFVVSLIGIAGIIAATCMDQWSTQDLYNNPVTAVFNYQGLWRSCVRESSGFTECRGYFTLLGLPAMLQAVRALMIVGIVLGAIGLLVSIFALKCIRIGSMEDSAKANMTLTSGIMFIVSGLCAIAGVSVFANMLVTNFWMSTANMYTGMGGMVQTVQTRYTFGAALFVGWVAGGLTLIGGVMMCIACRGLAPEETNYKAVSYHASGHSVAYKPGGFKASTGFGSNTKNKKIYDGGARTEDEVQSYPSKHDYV

In turn, Negative-IgG1AA (antibody) showed a Jurkat-NFAT luciferase reporter, Fluorescence value (Max) in experiment [1] of 0. In addition, the Top mean fluorescence intensity (Top MFI) in experiment [2] stood at 110 MFI; in experiment [4], 359 MFI. Further, the MFI (Max) amounted to 75 MFI in experiment [3] and 136 MFI in experiment [5].
